Changes are numbered by the printed parent chain. In names and notes the source's numbering stands. One block for each molecule: values may come before it. No end group written: not given here. *: point of attachment. Farnesyl = CC(C)=CCC/C(C)=C/CC/C(C)=C/C*
Legend:
[1] = target: FITC-labeled C-terminal peptide of HSP90a; experiment: fluorescence polarisation
[2] = target: PDE6 γ-subunit with a single Cys at position 35, labeled with 3-(bromo acetyl)-7-diethyl aminocoumarine (UniProt P04972); experiment: other fluorescence titration
[3] = target: AMCA-labeled C-terminal peptide of mouse PDE6A, S-farnesylated and carboxymethylated (mouse); experiment: FRET or BRET
[4] = target: T1, hAIPL1 P376S mutant, His6-tagged (human, UniProt Q9NZN9 1-384, P376S); experiment: FRET or BRET
T1 sequence (looked up): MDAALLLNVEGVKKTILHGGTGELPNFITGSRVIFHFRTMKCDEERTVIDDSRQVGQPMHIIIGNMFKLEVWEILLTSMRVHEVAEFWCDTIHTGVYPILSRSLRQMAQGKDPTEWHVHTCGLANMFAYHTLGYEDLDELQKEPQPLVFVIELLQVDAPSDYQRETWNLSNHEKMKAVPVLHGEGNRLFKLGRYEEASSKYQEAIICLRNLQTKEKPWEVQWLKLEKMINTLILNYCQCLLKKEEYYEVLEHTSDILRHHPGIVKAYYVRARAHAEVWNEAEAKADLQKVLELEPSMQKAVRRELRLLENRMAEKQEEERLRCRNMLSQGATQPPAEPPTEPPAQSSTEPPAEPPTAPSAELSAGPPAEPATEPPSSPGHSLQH

[5] = target: T2, human aryl hydrocarbon receptor-interacting protein-like 1 (hAIPL1), full length, His6-tagged (human, UniProt Q9NZN9 1-384); experiment: FRET or BRET
T2 sequence (looked up): T1 sequence (looked up) with S376P

[6] = target: T3, hAIPL1 R302L mutant, His6-tagged (human, UniProt Q9NZN9 1-384, R302L); experiment: FRET or BRET
T3 sequence (looked up): T1 sequence (looked up) with R302L, S376P

[7] = target: T4, hAIPL1 1–316 lacking the proline-rich domain, His6-tagged (human, UniProt Q9NZN9 1-316); experiment: FRET or BRET
T4 sequence (looked up): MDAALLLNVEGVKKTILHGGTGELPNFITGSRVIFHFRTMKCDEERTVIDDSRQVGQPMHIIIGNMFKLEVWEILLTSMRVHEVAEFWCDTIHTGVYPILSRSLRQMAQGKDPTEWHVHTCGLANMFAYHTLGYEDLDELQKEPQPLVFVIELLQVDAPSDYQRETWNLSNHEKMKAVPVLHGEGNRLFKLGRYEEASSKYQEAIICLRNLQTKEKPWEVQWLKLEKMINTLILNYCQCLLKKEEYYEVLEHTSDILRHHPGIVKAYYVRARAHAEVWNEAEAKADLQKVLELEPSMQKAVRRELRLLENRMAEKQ

[8] = target: T2, human aryl hydrocarbon …; experiment: other fluorescence titration

Kd [1]: 32800 nM
Kd [2]: 1380 nM
Kd [3]: 140 nM
Molecule: hAIPL1 P351∆12 mutant, His6-tagged (from UniProt Q9NZN9 1-384) (natural protein)

Kd [1]: 20800 nM
Kd [2]: 730 nM
B1: hAIPL1 1–316 lacking the proline-rich domain, His6-tagged (domain or fragment)
chain: T4 sequence (looked up)

Kd [4]: 200 nM
Kd [5]: 110 nM
Kd [6]: 160 nM
Kd [7]: 240 nM
B2: AMCA-labeled C-terminal peptide of mouse PDE6A, S-farnesylated and carboxymethylated (peptide)
peptide: GAPASKSC(Farnesyl)
modifications: also: Cys carboxymethylated, AMCA-X conjugated

Kd [8]: 2500 nM
B3: PDE6 γ-subunit with a single Cys at position 68, labeled with 3-(bromo acetyl)-7-diethyl aminocoumarine (natural protein, UniProt P04972 1-87, looked up)
chain: MNLEPPKAEIRSATRVMGGPVTPRKGPPKFKQRQTRQFKSKPPKKGVQGFGDDIPGMEGLGTDITVICPWEAFNHLELHELAQYGII
modifications: 3-(bromo acetyl)-7-diethyl aminocoumarine (BC) on Cys68

Kd [1]: 20800 nM
Kd [2]: 990 nM
B4: human aryl hydrocarbon receptor-interacting protein-like 1 (hAIPL1), full length, His6-tagged (natural protein)
chain: T1 sequence (looked up) with S376P

Kd [1]: 27200 nM
Kd [2]: 810 nM
B5: hAIPL1 R302L mutant, His6-tagged (natural protein)
chain: T1 sequence (looked up) with R302L, S376P

Kd [1]: 23000 nM
Kd [2]: 950 nM
B6: hAIPL1 P376S mutant, His6-tagged (natural protein)
chain: T1 sequence (looked up)

Reference: article PMC6309207 (Journal of neurochemistry, 2015)
